Measured values reported in PMC12658125, “Oligomerisation of Ku from Mycobacterium tuberculosis promotes DNA synapsis” (Nature Communications, 2025).

T1: Ku-Mtb (Mycobacterium tuberculosis, UniProt P9WKD9 1-273)
T1 sequence: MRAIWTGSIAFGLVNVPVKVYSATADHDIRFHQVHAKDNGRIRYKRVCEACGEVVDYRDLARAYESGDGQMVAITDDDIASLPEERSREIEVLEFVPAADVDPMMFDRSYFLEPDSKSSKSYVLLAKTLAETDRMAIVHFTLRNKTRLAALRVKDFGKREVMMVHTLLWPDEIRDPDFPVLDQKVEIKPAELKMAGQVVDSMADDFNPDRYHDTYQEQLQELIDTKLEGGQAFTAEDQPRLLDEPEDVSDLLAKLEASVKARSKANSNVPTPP

B1: Blunt-DNA 50 bp (dsDNA)
DNA 1: CCTCTAGACCTGTACTACTCGAGAGATCGATCGACAGACGATGACTTAGC
DNA 2: GCTAAGTCATCGTCTGTCGATCGATCTCTCGAGTAGTACAGGTCTAGAGG
B2: FAM-DNA, 32 bp with 3' 20dT overhang (mixed)
DNA 1: GGAATGTAACCATCGTTGGTCGGCAGCAGGGCTTTTTTTTTTTTTTTTTTTT
DNA 2: GCCCTGCTGCCGACCAACGATGGTTACATTCC

What was measured:
[1] = biological target: T1, Ku-Mtb; experiment: EMSA; 5 mM MgCl2; details: protein: recombinant; tags: His (Ni-NTA purified, pET45b); chain copies: 2; blunt
[2] = biological target: T1, Ku-Mtb; experiment: FIDA (hydrodynamic radius); details: protein: recombinant; tags: His (Ni-NTA purified, pET45b); chain copies: 2; label: 5' FAM on strand 1; 3' overhang 20 nt on strand 1
[3] = biological target: T1, Ku-Mtb; experiment: EMSA; details: protein: recombinant; tags: His (Ni-NTA purified, pET45b); chain copies: 2; label: 5' FAM on strand 1; 3' overhang 20 nt on strand 1

| Binder | binding result [1] | binding result [2] | binding result [3] |
| --- | --- | --- | --- |
| B1 | binds |  |  |
| B2 |  | binds | binds |
